T1: Abp1, P15891
T1 sequence (P15891 535-592, looked up): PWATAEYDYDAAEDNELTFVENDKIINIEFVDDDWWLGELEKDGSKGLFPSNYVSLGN

T2: Bbc1, P47068
T2 sequence (P47068 1-78, looked up): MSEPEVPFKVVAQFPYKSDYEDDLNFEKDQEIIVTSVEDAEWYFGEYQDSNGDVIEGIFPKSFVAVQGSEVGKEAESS

T3: Boi1, P38041
T3 sequence (P38041 1-86, looked up): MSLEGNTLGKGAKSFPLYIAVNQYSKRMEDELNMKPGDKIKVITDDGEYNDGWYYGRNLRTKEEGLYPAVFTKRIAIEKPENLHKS

T4: Boi2, P39969
T4 sequence (P39969 32-116, looked up): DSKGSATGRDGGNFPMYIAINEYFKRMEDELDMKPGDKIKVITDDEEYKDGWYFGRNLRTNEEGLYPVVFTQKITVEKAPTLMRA

T5: Bud14, P27637
T5 sequence (P27637 247-328, looked up): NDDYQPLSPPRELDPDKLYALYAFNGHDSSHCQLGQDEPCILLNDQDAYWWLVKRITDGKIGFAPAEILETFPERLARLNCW

T6: Bzz1-1, P38822
T6 sequence (P38822 478-572, looked up): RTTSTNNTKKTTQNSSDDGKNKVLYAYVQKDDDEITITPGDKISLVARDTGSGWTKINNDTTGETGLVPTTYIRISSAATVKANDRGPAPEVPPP

T7: Bzz1-2, P38822
T7 sequence (P38822 568-633, looked up): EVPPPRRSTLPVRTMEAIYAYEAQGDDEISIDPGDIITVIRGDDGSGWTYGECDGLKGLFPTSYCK

T8: Cdc25, P04821
T8 sequence (P04821 50-136, looked up): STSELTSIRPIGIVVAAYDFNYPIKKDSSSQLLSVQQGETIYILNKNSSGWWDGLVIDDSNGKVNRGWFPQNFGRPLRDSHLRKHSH

T9: Cyk3, Q07533
T9 sequence (Q07533 1-83, looked up): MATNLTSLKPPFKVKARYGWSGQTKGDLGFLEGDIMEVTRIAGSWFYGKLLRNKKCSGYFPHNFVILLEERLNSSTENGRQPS

T10: Fus1, P11710
T10 sequence (P11710 432-512, looked up): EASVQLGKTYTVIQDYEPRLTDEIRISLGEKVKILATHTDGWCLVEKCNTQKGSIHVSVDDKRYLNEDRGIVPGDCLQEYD

T11: Hof1, Q05080
T11 sequence (Q05080 590-669, looked up): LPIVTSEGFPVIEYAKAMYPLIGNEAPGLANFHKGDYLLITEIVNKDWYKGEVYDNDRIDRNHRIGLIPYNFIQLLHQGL

T12: Hse1, P38753
T12 sequence (P38753 208-285, looked up): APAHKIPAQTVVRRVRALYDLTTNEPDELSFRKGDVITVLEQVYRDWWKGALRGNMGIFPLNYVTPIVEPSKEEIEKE

T13: Lsb1, P53281
T13 sequence (P53281 45-122, looked up): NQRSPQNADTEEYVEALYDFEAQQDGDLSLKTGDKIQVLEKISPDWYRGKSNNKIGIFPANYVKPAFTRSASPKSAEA

T14: Lsb3, P43603
T14 sequence (P43603 385-451, looked up): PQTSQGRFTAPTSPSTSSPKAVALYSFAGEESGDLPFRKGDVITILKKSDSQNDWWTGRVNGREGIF

T15: Lsb4, P32793
T15 sequence (P32793 402-468, looked up): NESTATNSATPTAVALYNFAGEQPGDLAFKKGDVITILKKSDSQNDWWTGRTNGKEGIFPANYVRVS

T16: Myo5, Q04439
T16 sequence (Q04439 1072-1160, looked up): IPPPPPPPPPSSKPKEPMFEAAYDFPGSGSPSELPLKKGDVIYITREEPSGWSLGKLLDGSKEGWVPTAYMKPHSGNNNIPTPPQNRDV

T17: Nbp2, Q12163
T17 sequence (Q12163 103-180, looked up): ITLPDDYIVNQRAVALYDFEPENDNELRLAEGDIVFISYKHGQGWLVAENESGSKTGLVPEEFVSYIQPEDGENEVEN

T18: Pex13, P80667
T18 sequence (P80667 295-386, looked up): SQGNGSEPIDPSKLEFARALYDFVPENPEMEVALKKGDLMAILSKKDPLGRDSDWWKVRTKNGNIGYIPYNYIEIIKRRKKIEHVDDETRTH

T19: Pin3, Q06449
T19 sequence (Q06449 53-122, looked up): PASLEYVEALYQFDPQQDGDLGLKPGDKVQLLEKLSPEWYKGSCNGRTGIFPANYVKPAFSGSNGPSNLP

T20: Sla1-2, P32790
T20 sequence (P32790 60-140, looked up): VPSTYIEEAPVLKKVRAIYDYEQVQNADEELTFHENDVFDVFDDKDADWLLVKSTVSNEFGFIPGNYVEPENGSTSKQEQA

T21: Sla1-3, P32790
T21 sequence (P32790 344-424, looked up): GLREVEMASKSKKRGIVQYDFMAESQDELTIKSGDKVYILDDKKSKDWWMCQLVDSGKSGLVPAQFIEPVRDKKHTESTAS

B1: unnamed (peptide)
chain: IKKRNKIRLPSGSPE
B2: unnamed (peptide)
chain: QHQQRQPKRPKRYSL
B3: unnamed (peptide)
chain: GRLRPKRIAPWHLIQ

target: T1, Abp1, P15891; assay: SPOT array; details: median of control spots 935

| SPOT intensity | Binder |
| --- | --- |
| 136 | B1 |
| 106 | B2 |
| 25 | B3 |

target: T2, Bbc1, P47068; assay: SPOT array; details: median of control spots 796

| SPOT intensity | Binder |
| --- | --- |
| 101 | B1 |
| 211 | B2 |
| 57 | B3 |

target: Bem1-1, P29366; assay: SPOT array; details: median of control spots 4282
Sequence (P29366 55-141): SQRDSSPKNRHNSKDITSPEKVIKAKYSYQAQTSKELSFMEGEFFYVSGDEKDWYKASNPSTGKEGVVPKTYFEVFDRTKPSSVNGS

| SPOT intensity | Binder |
| --- | --- |
| 1 | B1 |
| 1 | B2 |
| 0 | B3 |

target: Bem1-2, P29366; assay: SPOT array; details: median of control spots 4347
Sequence (P29366 139-227): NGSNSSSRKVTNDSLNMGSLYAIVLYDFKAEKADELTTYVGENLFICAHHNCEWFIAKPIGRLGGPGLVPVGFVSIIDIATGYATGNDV

| SPOT intensity | Binder |
| --- | --- |
| 0 | B1 |
| 147 | B2 |
| 6 | B3 |

target: T3, Boi1, P38041; assay: SPOT array; details: median of control spots 1162

| SPOT intensity | Binder |
| --- | --- |
| 5 | B1 |
| 13 | B2 |
| 2 | B3 |

target: T4, Boi2, P39969; assay: SPOT array; details: median of control spots 1161

| SPOT intensity | Binder |
| --- | --- |
| 3 | B1 |
| 4 | B2 |
| 1 | B3 |

target: T5, Bud14, P27637; assay: SPOT array; details: median of control spots 956

| SPOT intensity | Binder |
| --- | --- |
| 10 | B1 |
| 8 | B2 |
| 3 | B3 |

target: T6, Bzz1-1, P38822; assay: SPOT array; details: median of control spots 4446

| SPOT intensity | Binder |
| --- | --- |
| 2 | B1 |
| 0 | B2 |
| 0 | B3 |

target: T7, Bzz1-2, P38822; assay: SPOT array; details: median of control spots 4538

| SPOT intensity | Binder |
| --- | --- |
| 4 | B1 |
| 17 | B2 |
| 4 | B3 |

target: T8, Cdc25, P04821; assay: SPOT array; details: median of control spots 969

| SPOT intensity | Binder |
| --- | --- |
| 18 | B1 |
| 22 | B2 |
| 0 | B3 |

target: T9, Cyk3, Q07533; assay: SPOT array; details: median of control spots 1451

| SPOT intensity | Binder |
| --- | --- |
| 9 | B1 |
| 1 | B2 |
| 1 | B3 |

target: T10, Fus1, P11710; assay: SPOT array; details: median of control spots 1200

| SPOT intensity | Binder |
| --- | --- |
| 52 | B1 |
| 55 | B2 |
| 6 | B3 |

target: GST; assay: SPOT array; details: median of control spots 978

| SPOT intensity | Binder |
| --- | --- |
| 3 | B1 |
| 8 | B2 |
| 0 | B3 |

target: T11, Hof1, Q05080; assay: SPOT array; details: median of control spots 4086

| SPOT intensity | Binder |
| --- | --- |
| 6 | B1 |
| 3 | B2 |
| 1 | B3 |

target: T12, Hse1, P38753; assay: SPOT array; details: median of control spots 1727

| SPOT intensity | Binder |
| --- | --- |
| 6 | B1 |
| 33 | B2 |
| 9 | B3 |

target: T13, Lsb1, P53281; assay: SPOT array; details: median of control spots 388

| SPOT intensity | Binder |
| --- | --- |
| 104 | B1 |
| 5 | B2 |
| 0 | B3 |

target: T14, Lsb3, P43603; assay: SPOT array; details: median of control spots 406

| SPOT intensity | Binder |
| --- | --- |
| 0 | B1 |
| 36 | B2 |
| 0 | B3 |

target: T15, Lsb4, P32793; assay: SPOT array; details: median of control spots 397

| SPOT intensity | Binder |
| --- | --- |
| 6 | B1 |
| 101 | B2 |
| 0 | B3 |

target: Myo3, P36006; assay: SPOT array; details: median of control spots 468

| SPOT intensity | Binder |
| --- | --- |
| 7 | B1 |
| 2 | B2 |
| 0 | B3 |

target: T16, Myo5, Q04439; assay: SPOT array; details: median of control spots 471

| SPOT intensity | Binder |
| --- | --- |
| 0 | B1 |
| 2 | B2 |
| 0 | B3 |

target: T17, Nbp2, Q12163; assay: SPOT array; details: median of control spots 357

| SPOT intensity | Binder |
| --- | --- |
| 24 | B1 |
| 21 | B2 |
| 10 | B3 |

target: T18, Pex13, P80667; assay: SPOT array; details: median of control spots 1341

| SPOT intensity | Binder |
| --- | --- |
| 2 | B1 |
| 6 | B2 |
| 8 | B3 |

target: T19, Pin3, Q06449; assay: SPOT array; details: median of control spots 2171

| SPOT intensity | Binder |
| --- | --- |
| 4 | B1 |
| 2 | B2 |
| 5 | B3 |

target: Rvs167, P39743; assay: SPOT array; details: median of control spots 2707
Sequence (P39743 419-482): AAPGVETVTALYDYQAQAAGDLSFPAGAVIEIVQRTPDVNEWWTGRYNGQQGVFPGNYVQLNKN

| SPOT intensity | Binder |
| --- | --- |
| 4 | B1 |
| 0 | B2 |
| 8 | B3 |

target: Sho1, P40073; assay: SPOT array; details: median of control spots 1148
Sequence (P40073 287-367): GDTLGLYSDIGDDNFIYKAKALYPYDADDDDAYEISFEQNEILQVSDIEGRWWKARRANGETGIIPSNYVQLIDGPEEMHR

| SPOT intensity | Binder |
| --- | --- |
| 122 | B1 |
| 115 | B2 |
| 83 | B3 |

target: T20, Sla1-2, P32790; assay: SPOT array; details: median of control spots 712

| SPOT intensity | Binder |
| --- | --- |
| 0 | B1 |
| 5 | B2 |
| 0 | B3 |

target: T21, Sla1-3, P32790; assay: SPOT array; details: median of control spots 5475

| SPOT intensity | Binder |
| --- | --- |
| 43 | B1 |
| 78 | B2 |
| 41 | B3 |

From paper PMC2756588
